In PMC4686657:

Target: GST-E2f1 (UniProt Q01094)
Test: EMSA
Conditions: increasing GST-E2f1, constant probe, EMSA: 20 mM HEPES, 10 mM KCl, 0.2 mM EDTA, 10% glycerol, 5 mM DTT (7 ul Binding Buffer D in 20 ul), 50 ng poly dI:dC, 0.15% NP-40, 1 ug BSA, 5 ug nuclear …

Sequence of UniProt Q01094 (Q01094 whole entry): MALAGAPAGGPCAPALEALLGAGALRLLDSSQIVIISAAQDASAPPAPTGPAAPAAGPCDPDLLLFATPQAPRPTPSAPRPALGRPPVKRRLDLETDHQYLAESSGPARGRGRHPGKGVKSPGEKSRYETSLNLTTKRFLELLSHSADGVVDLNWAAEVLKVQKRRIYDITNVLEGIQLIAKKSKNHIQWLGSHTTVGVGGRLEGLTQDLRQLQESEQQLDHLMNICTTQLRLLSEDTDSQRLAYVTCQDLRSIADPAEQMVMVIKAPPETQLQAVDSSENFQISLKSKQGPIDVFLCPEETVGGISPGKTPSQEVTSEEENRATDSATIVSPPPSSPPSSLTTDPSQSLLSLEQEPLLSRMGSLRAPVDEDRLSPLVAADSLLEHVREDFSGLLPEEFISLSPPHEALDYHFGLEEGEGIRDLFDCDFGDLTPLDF

In the case of “CAGGCGACAGCGGCGCGGAACGCAG (double strand) [Pfkl probe]”, the binding signal (reference (Pfkl T-stretch is 1.88-fold)) is reported as 1.
In the case of “CAGGCTTTTTCGGCGCGGAACGCAG (double strand) [Pfkl T-stretch probe]”, the binding signal (scale: fold signal vs Pfkl probe) is reported as 1.88.
